Molecular target: His5-MttP (MM_1691), DME family transporter of Methanosarcina mazei (Methanosarcina mazei)
Test: SEC

stoichiometry N | Substance
1 | MttS (sORF05), small protein of Methanosarcina mazei (natural protein)
1 | MttQ (MM_1692), small protein of Methanosarcina mazei (natural protein)
